Patent US11306156
Values belong to the substance of their own block, whether it stands above or below them.

Assays:
[1] = biological target: D3H44 light chain S121K_V133G_N137K_S174R_S176R (Kabat), N-terminal HA or FLAG tag; test: LCCA co-expression, competing light chain m30, L1:L2 DNA 1:3 normalized to 1:1, SPR tag read-out
[2] = biological target: tissue factor (TF) antigen (UniProt P13726); test: SPR (ProteOn), Fab captured via anti-penta-His, TF injected, 1:1 fit; batch C (+)
[3] = biological target: tissue factor (TF) antigen (UniProt P13726); test: SPR (ProteOn), Fab captured via anti-penta-His, TF injected, 1:1 fit; reference wild-type D3H44 Fab; batch C (+)
[4] = biological target: tissue factor (TF) antigen (UniProt P13726); test: SPR (ProteOn XPR36), Fab captured on anti-penta His, TF injected at 0.74-60 nM, 1:1 model; median
[5] = biological target: D3H44 light chain Q124K_V133G_S176R_T178K (Kabat), N-terminal HA or FLAG tag; test: LCCA co-expression, competing light chain m23, L1:L2 DNA 1:3 normalized to 1:1, SPR tag read-out
[6] = biological target: D3H44 light chain V133G_S176D_T178D_T180E (Kabat), N-terminal HA or FLAG tag; test: LCCA co-expression, competing light chain m24, L1:L2 DNA 1:3 normalized to 1:1, SPR tag read-out
[7] = biological target: D3H44 light chain Q124K_V133G_S176R_T178K (Kabat), N-terminal HA or FLAG tag; test: LCCA co-expression, competing light chain m26, L1:L2 DNA 1:3 normalized to 1:1, SPR tag read-out
[8] = biological target: D3H44 light chain Q124E_V133G_S176D_T178E_T180E (Kabat), N-terminal HA or FLAG tag; test: LCCA co-expression, competing light chain m24, L1:L2 DNA 1:3 normalized to 1:1, SPR tag read-out
[9] = biological target: D3H44 light chain Q124K_V133G_S176R_T178K (Kabat), N-terminal HA or FLAG tag; test: LCCA co-expression, competing light chain m25, L1:L2 DNA 1:3 normalized to 1:1, SPR tag read-out
[10] = biological target: tissue factor (TF) antigen (UniProt P13726); test: SPR (ProteOn XPR36), Fab captured by His tag on anti-penta-His surface, TF injected as analyte, 1:1 fit; batch C (+)
[11] = biological target: tissue factor (TF) antigen (UniProt P13726); test: SPR (ProteOn XPR36), Fab captured by His tag on anti-penta-His surface, TF injected as analyte; against wild-type D3H44 Fab; batch C (+)
[12] = biological target: D3H44 light chain V133G_N137K_S174R_S176R (Kabat), N-terminal HA or FLAG tag; test: LCCA co-expression, competing light chain m30, L1:L2 DNA 1:3 normalized to 1:1, SPR tag read-out
[13] = biological target: tissue factor (TF) antigen (UniProt P13726); test: SPR (ProteOn XPR36), Fab captured on anti-penta-His surface, TF as analyte; reference wild-type D3H44 Fab; batch C
[14] = biological target: tissue factor (TF) antigen (UniProt P13726); test: SPR (ProteOn XPR36), Fab captured on anti-penta-His surface, TF as analyte, 1:1 fit; batch C (stored about 2 months at 4 C)
[15] = biological target: D3H44 light chain Q124E_T180E (Kabat), N-terminal HA or FLAG tag; test: LCCA co-expression, competing light chain m36, L1:L2 DNA 1:3 normalized to 1:1, SPR tag read-out
[16] = biological target: D3H44 light chain Q124E_T180E (Kabat), N-terminal HA or FLAG tag; test: LCCA co-expression, competing light chain m36, L1:L2 DNA 1:9 normalized to 1:1, SPR tag read-out
[17] = biological target: D3H44 light chain S131K (Kabat), N-terminal HA or FLAG tag; test: LCCA co-expression, competing light chain m37, L1:L2 DNA 1:3 normalized to 1:1, SPR tag read-out
[18] = biological target: D3H44 light chain S131K (Kabat), N-terminal HA or FLAG tag; test: LCCA co-expression, competing light chain m37, L1:L2 DNA 1:9 normalized to 1:1, SPR tag read-out

Substance: wild-type D3H44 Fab heterodimer where the light chain contains a FLAG tag
Kd [4]: 0.157 nM

Substance: D3H44 Fab heavy chain L124E_A125S_H172T_K228D (Kabat), C-terminal ABD2-His6 tag
H1L1:H1L2 normalized median ratio [1]: 27 of 100 | H1L1:H1L2 normalized median scalar value ln(r1/f1) [1]: -0.97

Substance: D3H44 Fab heavy chain L124E_L143E_K145M (Kabat), C-terminal ABD2-His6 tag
H1L1:H1L2 normalized median ratio [5]: 88 of 100 | H1L1:H1L2 normalized median scalar value ln(r1/f1) [5]: 1.95 | H1L1:H1L2 normalized median ratio [6]: 37 of 100 | H1L1:H1L2 normalized median ratio [7]: 63 of 100 | H1L1:H1L2 normalized median scalar value ln(r1/f1) [7]: 0.55

Substance: D3H44 Fab heavy chain L124E_L143D_K145T (Kabat), C-terminal ABD2-His6 tag
H1L1:H1L2 normalized median ratio [5]: 81 of 100 | H1L1:H1L2 normalized median scalar value ln(r1/f1) [5]: 1.44 | H1L1:H1L2 normalized median ratio [8]: 21 of 100 | H1L1:H1L2 normalized median ratio [9]: 79 of 100 | H1L1:H1L2 normalized median scalar value ln(r1/f1) [9]: 1.31

Substance: D3H44 H1L1 Fab heterodimer of LCCA Sets # 9888 and 9887 (H1 S186R, L1 Q124E_T178E)
Kd [10]: 0.14 nM | change in median KD compared to wild type, -(log(KD design)-log(KD wt)) [11]: 0.06 log

Substance: D3H44 Fab heavy chain L124R_H172R (Kabat), C-terminal ABD2-His6 tag
H2L2:H2L1 normalized median ratio [12]: 8 of 100

Substance: D3H44 H1L1 Fab heterodimer of LCCA Set # 9982 (H1 S186K, L1 S131E)
Kd [10]: 0.14 nM | change in median KD compared to wild type, -(log(KD design)-log(KD wt)) [11]: 0.05 log

Substance: D3H44 H1L1 Fab heterodimer of LCCA Set # 9648 (H1 L143E_K145T_Q179E, L1 Q124K_T178R)
Kd [10]: 0.14 nM | change in median KD compared to wild type, -(log(KD design)-log(KD wt)) [11]: 0.05 log

Substance: D3H44 Fab heterodimer H1 S188L_V190Y / L1 V133S
Change in median values of KD of h1l1 Fab heterodimer compared to wild type (-(log(KD design)-log(KD wt))) [13]: 0.2 | Kd [14]: 0.1 nM

Substance: D3H44 Fab heavy chain L124E_H172T (Kabat), C-terminal ABD2-His6 tag
H1L1:H1L2 normalized median ratio [12]: 53 of 100 | H1L1:H1L2 normalized median scalar value ln(r1/f1) [12]: 0.12

Substance: D3H44 Fab heavy chain L124R_S186K (Kabat), C-terminal ABD2-His6 tag
H2L2:H2L1 normalized median ratio [5]: 24 of 100 | H2L2:H2L1 normalized median ratio [6]: 93 of 100 | H2L2:H2L1 normalized median ratio [7]: 7 of 100

Second part, the substance after the results:

H2L2:H2L1 normalized median ratio [1]: 5 of 100
Substance: D3H44 Fab heavy chain L124R_A125R_H172R (Kabat), C-terminal ABD2-His6 tag

Kd [2]: 0.14 nM | change in median KD compared to wild type, -(log(KD design)-log(KD wt)) [3]: 0.05
Substance: D3H44 Fab heterodimer (H1L1) of LCCA Sets # 9979, 9983: H1 Q179K, L1 S131E

H1L1:H1L2 normalized median ratio [5]: 89 of 100 | H1L1:H1L2 normalized median scalar value ln(r1/f1) [5]: 2.08 | H1L1:H1L2 normalized median ratio [6]: 38 of 100 | H1L1:H1L2 normalized median ratio [7]: 62 of 100 | H1L1:H1L2 normalized median scalar value ln(r1/f1) [7]: 0.43
Substance: D3H44 Fab heavy chain L124E_L143E_K145T (Kabat), C-terminal ABD2-His6 tag

Kd [2]: 0.06 nM | change in median KD compared to wild type, -(log(KD design)-log(KD wt)) [3]: 0.41
Substance: D3H44 Fab heterodimer (H1L1) of LCCA Sets # 9829, 9830: H1 S186K, L1 Q124E_Q160E_T178E

Change in median values of KD of h1l1 Fab heterodimer compared to wild type (-(log(KD design)-log(KD wt))) [13]: 0.05 | Kd [14]: 0.14 nM
Substance: D3H44 Fab heterodimer H1 S186K / L1 S131E

Kd [2]: 0.15 nM | change in median KD compared to wild type, -(log(KD design)-log(KD wt)) [3]: 0.02
Substance: D3H44 Fab heterodimer (H1L1) of LCCA Set # 9851: H1 S186K, L1 Q124E_T178E_T180E

H1L1:H1L2 normalized median ratio [15]: 58 of 100 | H1L1:H1L2 normalized median ratio [16]: 25 of 100 | H1L1:H1L2 normalized median ratio [17]: 42 of 100 | H1L1:H1L2 normalized median scalar value ln(r1/f1) [17]: -0.34 | H1L1:H1L2 normalized median ratio [18]: 75 of 100 | H1L1:H1L2 normalized median scalar value ln(r1/f1) [18]: 1.1
Substance: D3H44 Fab heavy chain K145T_Q179E (Kabat), C-terminal ABD2-His6 tag

H2L2:H2L1 normalized median ratio [15]: 98 of 100 | H2L2:H2L1 normalized median ratio [16]: 93 of 100 | H2L2:H2L1 normalized median ratio [17]: 2 of 100 | H2L2:H2L1 normalized median ratio [18]: 7 of 100
Substance: D3H44 Fab heavy chain S186K (Kabat), C-terminal ABD2-His6 tag
